Test results: a protein production outcome set (Wang et al. 2014)

Assay: label from the status in PepcDB records

In the case of “MSSPARSPSVGGATPKQGARTPTRGIASQDVETPMRMGPGRAVRPSDNISLPPTSPGNISLPATSPARGLGANMSEIDLSSPLNYGTPSSMGSIRTPRSGIRGTPLRARPDIRTDKRIRQVAIGGGSGLEPIPEKGSETTDPVSESSQAPQLVVWGTNVVVSQCKSKFKSFIMRFIDPSAEQDEISENIDVNQPLYLQKLEEIHTLEEPYLNLNCAHLKTFDQDLYRQLICYPQEVIPGFDMAINEMFFERYPAALLEHQIQVRPFNADKTRNMRSLNPEDMDQLISISGMVIRSSNVIPEMREAFFSCNICSFSTTVEVDRGRINQPTLCTNCNTNHCFRLIHNRSEFTDKQLVKLQESPDDMAAGQTPHNVLLYAHNDLVDKVQPGDRVTVTGIYRATPLKTGGLSSSVKSVYKTHVDVVHFRKVDNKRLYEDEEGKDHIFPPERVELLQLLAKKPDIYDRLARAIAPSIYENDDIKKGILLQLFGGTKKKHATLGRQNFRSEIHLLLCGDPGTSKSQMLQYVFNLVPRSQYTSGRGSSAVGLTAYVTKDPETRQLVLQTGALVLADNGVCCIDEFDKMNDSTRSVLHEVMEQQTLSIAKAGIICQLNARTSILAAANPAESQWNKRKNIIDNVQLPHTLLSRFDLIFLVLDPQDEIFDKRLASHLVSLYYVTRHEEEDTMFDMSVLRDYIAYAREHLSPTLSDEAQQRLIQAYVDMRKVGAGRGQISAYPRQLESLIRLSEAHAKVRLSNQVELLDVEEAWRLHREALKQSATDPLSGKIDVGILTTGLSTAARKKRADLVAAIKENLKKKGKVLTVPYQKLFSDIKEGSQIMITREQFEDALKEVQDEGAIVVMGKNTIRIC”, the protein production is reported as “failed”.
In the case of “MTFRNCVAVDLGASSGRVMLARYERECRSLTLREIHRFNNGLHSQNGYVTWDVDSLESAIRLGLNKVCEEGIRIDSIGIDTWGVDFVLLDQQGQRVGLPVAYRDSRTNGLMAQAQQQLGKRDIYQRSGIQFLPFNTLYQLRALTEQQPELIPHIAHALLMPDYFSYRLTGKMNWEYTNATTTQLVNINSDDWDESLLAWSGANKAWFGRPTHPGNVIGHWICPQGNEIPVVAVASHDTASAVIASPLNGSRAAYLSSGTWSLMGFESQTPFTNDTALAANITNEGGAEGRYRVLKNIMGLWLLQRVLQERQINDLPALISATQALPACRFIINPNDBRFINPETMCSEIQAACRETAQPIPESDAELARCIFDSLALLYADVLHELAQLRGEDFSQLHIVGGGCQNTLLNQLCADACGIRVIAGPVEASTLGNIGIQLMTLDELNNVDDFRQVVSTTANLTTFTPNPDSEIAHYVARIHSTRQTKELCA”, the protein production is reported as “not failed”.
With “VQRPWLAPLPGAPMNACRLLLCFPYGGGGASAFNDLSRLADVGVATWAVKLPGREDRSMEAPVTRVANVIEAIVDALQSVGIPYAFYGHSFGAGLALDVAHALAERDRPLPTHLVLSGRMPPHTGYSPLLGAMDDNQLWQHVCSESLLPLPTDASCSFARHALGKLKADLALNAQLTYRFIRPLPVPLYVLNGQDDPLLELHRLDEWQRYTSTSFHSEYVPGGHFFFNINFQLLYLPLLTALD” the protein production was “not failed”.
For “MLSERAAQMVIFSALIKHKNFTVAAKSLGVSVSHVSKQLSQLEESLGIKLVQRTTRSFTPTEAGKTFYHHCEQVVQAVSSATLEMESQRDEVAGLVRLGLSQSFGTLHIIPAIQELRELYPQLQVEVHLFDYKVDMLAEGLDLWVTNNEHLPEGYIAQRLTDCQFVVAASPDYLLKYDTPTEPNDLSLHNCLIYRSWERDYTGWAFTKGQQELNVKVSGNYSVDLAEAVRDAAIAGWGIAYLATYLLGDEFRTGKLIQLLPDWKASQSMPFYAVYPSRQHMPKKISAVINFIKQKIGNPCHWDQRLAPYISIPK”, the protein production was “failed”.
With “MSVETAQRSEVGVAMARSWLLVPAVGSEVLAAAAASGADSLVIDLEDGLPFAAKDEGRARTAEWLARNAGWVRINDATTPHWQRDLDAIRGLPGVRGLMLSKTESPEQVRDTAEGIPGIPVVALVESAAAIVAADDIARTAPVSRLAFGIGDYCRDTGAGRTPMALAYARSRLVNASRAARIGAPIDGPTLSLDAEAVRDDTRLAREMGMTGKLTLATEQVPVINTALAPDSNDISWAETTIARLGADGSRVTHGGHPPQLARAHDILRRAAHFASRT” the protein production was “failed”.
For “MRKGQETRERVVAQAAALFNVSGYAGTAISDIMAATGLEKGGIYRHFESKEQLALAAFDYAAEKVRERFAVGLAGHKHTVDTIIAFLDVFRSYAERPPLVGGCPILNTAIESDDTNPMLRERVRAVIDEWRETIRTLVQTGIARGEIRPEVDADRLALLIIATMEGAVMLARILETATPLEHAYTHLATYITQQVRLA”, the protein production was “not failed”.
For “MKSACSIITASIVLYKSKPDIIRDVITSFFSDTVTKKKLILIDNSPTDSLRVLQEERPEDIQYFFNNRNIGFGSAHNIGIREAARFNPSYHLILNPDVQFGPEVVPTLASYMDENPDIGLLMPQVYYPNGELQHLCKLFPRPWDVMLRRFVPYRSYRERNNERFELRNWSYDTIQDIPSLSGCFMFARMDILREVGGFDERFFMYAEDLDLCRRIGQVSRTVFFPKVSIMHTYAKGSYHDAKLLRHHIVSLIRYFNKWGWLFDAERRRVNRACLAVLRNQTTVKKD”, the protein production was “failed”.
For “MSQPRNRWIVQLILALAVLAFVGVSVVPIIGALNDNTSPSNQNSASNQGDSLASNQQSKLADEVRGYELVLQREPENQTALKGLLQARLQLLALKQGNVQSVIEPLEKLAKLNPNQSEYGVLLAQAKQQIGDKEGAATAYRSILDTKPGDLKALQGMVVLLLDQQRPEAAVGLLQDTLTNAAQANTIQPGSVDVVAVQVLLGNVHAAQKRYPQAISAFDQAIQKDTKDFRPVLAKAMLLKQQGKATEAKPLFDSALALAPAQYKDEINKAATVSPAPAPPAPPAPTPESTPKQ”, the protein production was “failed”.
With “MPEVSFIICTRNRVAVLEACLKSVQAACRAHAGFAAELVVVDNGSSDRTAERLASIAAMSDIPFTPVSEPRRGLAAARNAGLRRARGRVLVFVDDDCAVHCDYLRDLERHYASGEQGLIRGGRVELGDPRDLPFTIKRSRVCERLTPDIHPGGFVLGCNMTMHRDVAARIGDFDERFGAGGPLRSAEDTDYLVRAVLLGIPVEYVPDMTIFHHHGRRDRKAIEKLHRDYSLGNGGLCLKHIRHAPWLLRHFYWAARGALRELAGGPAFDRDLDLSHRPIVGMNVLGAARYALLLLARRPQAEPARQDQQANAEAPLLEHHHHHH” the protein production was “failed”.
With “MTDIVLADRYRLGDVIGTGGMSEVYEATDVLLGRKVAVKMLRADLARDVNFRERFRREAQNSGKLNHPAIVAVYDTGETPRAGLNTPYIVMELVNGRTLRDIVREDGPLTPSQAAHTLIPVCHALQVSHDAGIIHRDIKPANVMITNTGAVKIMDFGIARALDDATSAMTQTSAVIGTAQYLSPEQARGKLADARSDVYALGCVLYETLTGKPPFEGETPFAVAYQHVQEDPVKPSEYIADLSPTAAINVDAVVLTAMAKHPGDRYQTAQEMCADLERLGRNAVTDAARHYVTPTSFATQDPASTTVVPVTQVTELDHAEAGAGIGAGVVPAGAVAGSAAVAGSGGAHAAPRSSNRGLRILAAILAVLVLAVGAGFAIDYFGGGPFSQRSTVTIPKLQNSTQQDAVNQLEKLGLQVNVIEEPNPDIPRGKVIRTNPTDGSNVQRNSTVRLTISSGKEITEVPDLSGKNTADAVKILEAAGLLLDPTVREDSSDTVPKGEIIEVSPAAGSQVSRGSKVSITVSTGVETVRVPVITGMKWDQAEGNLTSLGFKPEVVRVDSVEPAGTVVAVPDEGAEVPKGSSVTVQISNGAMFTVPEITRQTIDDAVRILHDAGWKGNASRLIQAAKVPTVAVTDQNLIASQLPTPGTALRKDAPIEIRLYEFNLAALVPPAQH” the protein production was “failed”.
For “MSTSKAITLTLFIATTLLAPCNAAANATTKPLFPAILIFGDSTVDTGNNNYPLPTIFRAEHFPYGMDLPDGKANGRFSNGKLISDIIATKLNIKEFIPPFLQPNLSDQDILTGVCFASAGAGYDDLTSLSTQAIRVSEQPNMFKSYIARLKGIVGDKKAMEIINNAFVVVSAGPNDFILNYYEIPSRRLEYPFISGYQDFILKRLENFVRELYSLGVRNVLVGGLPPMGCLPIHMTAKFRNIFRFCLEHHNKDSVLYNEKLQNLLPQIEASLPGSKFLYADVYNPMMEMIQNPSKYGFKETKRGCCGTGFLETSFMCNVFSPVCQNRSEFLFFDSIHPSEATYNVIGNLLDPLIRGKFQA”, the protein production was “failed”.
For “MSLKIAVTGGTGFLGQYVVESIKNDGNTPIILTRSIGNKAINDYEYRVSDYTLEDLINQLNDVDAVVHLAATRGSQGKISEFHDNEILTQNLYDACYENNISNIVYASTISAYSDETSLPWNEKELPLPDLMYGVSKLACEHIGNIYSRKKGLCIKNLRFAHLYGFNEKNNYMINRFFRQAFHGEQLTLHANSVAKREFLYAKDAAKSVIYALKQEKVSGTFNIGSGDALTNYEVANTINNAFGNKDNLLVKNPNANEGIHSSYMDSSKAKELLDFSTDYNFATAVEEIHLLMRGLDDVPLWYEGHHHHHH”, the protein production was “not failed”.
For “MNSMAKKDNLTEELKKHFGFDTFKGNQRAIIENVLAGNDTFVLMPTGGGKSLCYQLPSLMMQGTAIVISPLIALMKNQVDAMRNFSEEDGVAHFINSSLNKSAIDQVKDDIRNGRTKLLYVAPESLTKDENVEFLRQVNISFYAVDEAHCISEWGHDFRPEYRRIRPIINEIGKRPLIALTATATPKVQHDIQKNLGMIDASVFKSSFNRSNLYYEIRPKTANIDREIIKYIKSNEGKSGIIYCLSRKKVEEFADILKANGIKALPYHAGMDSQQRSSNQDAFLMEKADVIVATIAFGMGIDKPDVRYVIHYDIPKSLEGYYQETGRAGRDGGEGQCIAFYAYKDLQKLEKFMQGKPVAEQEIGKQLLLETAAYAETSVCRRKVLLHYFGEEYLEENCGNCDNCLNPKKKVEAKELLSAVLEVVGTLKEKFKAEYIVNMLVGNETSEIQSYKHNELEIFGSGSDEEEKTWNAVIRQALIAGYLAKDIENYGLLKITEKGKEFIKKPVSFKITEDNEFDEEEEEVPVRGGAACAVDPALFSMMKDLRKKLSKRLEVPPFVIFQDPSLEAMATTYPVTLEELQNIPGVGAGKAKRYGKEFIELIKRHVEENEIERPEDLRVRTVANKSKLKVSIIQRIDRKVALDEIAMTNGLEFNELLDEIEAIVYSGTRINIDYFLNDVMDEDHIDDIYEYFKDSETDDLEDAIEELGGDYTEEEIRLVRIKFLSEMAN”, the protein production was “failed”.
In the case of “MADMESLDTAEMQEAAEKQAALFPNGGKSAEPTAAKHTATGLADGNKKPPVSNSFLDKFFQISKRGSTLAREFRGGLVTFFTMAYIVILNPLILGGFSAENAPTDVAGGWLSAAQVGAVTGLTAGVMTIIFGLVANLPFGLAAGLGINSFLAVAVIQEVTWPEAMGLVVINGILIVLFGATGARTAIFKAVPKELKAAITVGIGLFIAFIGFVDSGFVRATTGGPPVQLGDNGSITSIPTLVFIVGLLTMGILVARKIQGGLLIGIVATTVLAAVVEAVFHIGPGSADNPGGWHLNVPILSSQLVSVPDLSLVGQFDLFGSFARIGGLAATMLVFTLVFTNFFDAMGTMTGLAKSAGVAHKDGTFPKLKSAFIVEGMGAVVGGATSGSSNTVYIDSAAGIGEGARTGLASVVTGLLFLGSMFFTPLTSVVPLEVAAAALVVVGAMMMAQIREIKFTKFSIALPAFLTIVTMPLTYSIANGIGVGFISFAVISAASGKAKKVHPLMWVVTAGFIIYFARGPINALMGV”, the protein production is reported as “failed”.
In the case of “MRSPIKLEFSEKYDKDHAREYFLKHQDGLARRLSHKRDEQLARRALALAGEPGLVLDLPCGAGRFWPLLAEKPNRVIIGADNSEAMIETACAAQPPEVVARVRPLQTSAFAIDLPDNAVDSIFCMRLFHHIGESAHRKTILSEFQRVSRDSVILSLWVDGNFKAWRRKKLEQRRSAKAEQDNYQNRFVLPAETVEEEFRAAGFRIQERLDFLPFYAMWRVYVLRKG”, the protein production is reported as “failed”.
In the case of “MQDKNFDKLAQKFAKNIYGTPKGEIRAAVLWRDLAPALAQFGDKKLRILDAGGGFGYFSQKLARLGHEVVLCDISAEMLAQAKEQIDASDTPLAIRLVHAPIQALSITEHGMFDLILCHAVVEWLADAKTTMEGLLTMLKPNGLFSLMFYNKEAMRFHALVSGNFDYVAADLKVKKKVRLTPTHPLYIHEVKLWFAQWQMALLKESGVRVIHDYLKKQQAADFDYQKLLSMELEYSQREPYISLGRYVHFLGLEHHHHHH”, the protein production is reported as “failed”.
